Laboratory results: article PMC4971460

Molecular target: MBP-GS fusion construct Δ2 (not stated | E. coli) [MBP: P0AEX9]
Assay: cryo-EM structure

Work on “MBP-GS fusion construct Δ2 (from UniProt P0AEX9 27-396; P0A9C5 3-469)” yielded a stoichiometry N of 12.
